Reference: US20210371461

Target: T1, MePEG2-IEGR (TFA salt)
T1 chain: IEGR

B1: tissue-type plasminogen activator (protein)
chain: SYQVICRDEKTQMIYQQHQSWLRPVLRSNRVEYCWCNSGRAQCHSVPVKSCSEPRCFNGGTCQQALYFSDFVCQCPEGFAGKCCEIDTRATCYEDQGISYRGTWSTAESGAECTNWNSSALAQKPYSGRRPDAIRLGLGNHNYCRNPDRDSKPWCYVFKAGKYSSEFCSTPACSEGNSDCYFGNGSAYRGTHSLTESGASCLPWNSMILIGKVYTAQNPSAQALGLGKHNYCRNPDGDAKPWCHVLKNRRLTWEYCDVPSCSTCGLRQYSQPQFRIKGGLFADIASHPWQAAIFAKHRRSPGERFLCGGILISSCWILSAAHCFQERFPPHHLTVILGRTYRVVPGEEEQKFEVEKYIVHKEFDDDTYDNDIALLQLKSDSSRCAQESSVVRTVCLPPADLQLPDWTECELSGYGKHEALSPFYSERLKEAHVRLYPSSRCTSQHLLNRTVTDNMLCAGDTRSGGPQANLHDACQGDSGGPLVCLNDGRMTLVGIISWGLGCGQKDVPGVYTKVTNYLDWIRDNMRP
- luminescence signal (RLU) from substrate cleavage, 193 IU/mL enzyme: 193 IU/mL tPA yielded ˜6.000 RLU

B2: plasmin (protein)
chain: KVYLSECKTGNGKNYRGTMSKTKNGITCQKWSSTSPHRPRFSPATHPSEGLEENYCRNPDNDPQGPWCYTTDPEKRYDYCDILECEEECMHCSGENYDGKISKTMSGLECQAWDSQSPHAHGYIPSKFPNKNLKKNYCRNPDRELRPWCFTTDPNKRWELCDIPRCTTPPPSSGPTYQCLKGTGENYRGNVAVTVSGHTCQHWSAQTPHTHNRTPENFPCKNLDENYCRNPDGKRAPWCHTTNSQVRWEYCKIPSCDSSPVSTEQLAPTAPPELTPVVQDCYHGDGQSYRGTSSTTTTGKKCQSWSSMTPHRHQKTPENYPNAGLTMNYCRNPDADKGPWCFTTDPSVRWEYCNLKKCSGTEASVVAPPPVVLLPDVETPSEEDCMFGNGKGYRGKRATTVTGTPCQDWAAQEPHRHSIFTPETNPRAGLEKNYCRNPDGDVGGPWCYTTNPRKLYDYCDVPQCAAPSFDCGKPQVEPKKCPGRVVGGCVAHPHSWPWQVSLRTRFGMHFCGGTLISPEWVLTAAHCLEKSPRPSSYKVILGAHQEVNLEPHVQEIEVSRLFLEPTRKDIALLKLSSPAVITDKVIPACLPSPNYVVADRTECFITGWGETQGTFGAGLLKEAQLPVIENKVCNRYEFLNGRVQSTELCAGHLAGGTDSCQGDSGGPLVCFEKDKYILQGVTSWGLGCARPNKPGVYVRVSRFVTWIEGVMRNN
- luminescence signal (RLU) from substrate cleavage, 8 nM enzyme: 8 nM plasmin yielded ˜8.000 RLU

B3: factor XIIa (protein)
chain: IPPWEAPKEHKYKAEEHTVVLTVTGEPCHFPFQYHRQLYHKCTHKGRPGPQPWCATTPNFDQDQRWGYCLEPKKVKDHCSKHSPCQKGGTCVNMPSGPHCLCPQHLTGNHCQKEKCFEPQLLRFFHKNEIWYRTEQAAVARCQCKGPDAHCQRLASQACRTNPCLHGGRCLEVEGHRLCHCPVGYTGAFCDVDTKASCYDGRGLSYRGLARTTLSGAPCQPWASEATYRNVTAEQARNWGLGGHAFCRNPDNDIRPWCFVLNRDRLSWEYCDLAQCQTPTQAAPPTPVSPRLHVPLMPAQPAPPKPQPTTRTPPQSQTPGALPAKREQPPSLTRNGPLSCGQRLRKSLSSMTRVVGGLVALRGAHPYIAALYWGHSFCAGSLIAPCWVLTAAHCLQDRPAPEDLTVVLGQERRNHSCEPCQTLAVRSYRLHEAFSPVSYQHDLALLRLQEDADGSCALLSPYVQPVCLPSGAARPSETTLCQVAGWGHQFEGAEEYASFLQEAQVPFLSLERCSAPDVHGSSILPGMLCAGFLEGGTDACQGDSGGPLVCEDQAAERRLTLQGIISWGSGCGDRNKPGVYTDVAYYLAWIREHTVS
- luminescence signal (RLU) from substrate cleavage, 145 nM enzyme: 145 nM FXlla yielded ˜500 RLU
